In the supplement of paper PMC10567573:

B1: PKD2L1 (parent)
chain: VFIFYYVVEEILELHIHRLRYLSS
B2: KCNAB2 (parent)
chain: YVDVVFANRPDPNTPMEETVRAMT

Variants of: B1
Experiment: protein stability index of a GFP-peptide fusion (GPS, HEK-293T) (PSI 1-6); higher = more stable
Details: c terminus: a fixed tail appended
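Note: lentivirally expressed fusions sorted by FACS into six bins by GFP to DsRed ratio, PSI derived from sequencing read proportions per bin multiplied by bin number.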

Variant | protein stability index
VFIFYYVVEEILSLHIHRLRYLSS | 1.92
VFIFYYVVEEILMLHIHRLRYLSS | 2.72
VFIFYYVVEEILTLHIHRLRYLSS | 2.24
VFIFYYVVEEILILHIHRLRYLSS | 3.04
VFIFYYVVEEILVLHIHRLRYLSS | 3.39
VFIFYYVVEEILELHIHRLLYLSS | 2.38
VFIFYYVVEEILELHIHRLWYLSS | 2.38
VFIFYYVVEEILELHIHRLGYLSS | 2.12
VFIFYYVVEEILELHIHRLVYLSS | 3.27
VFIFYYVVEEILELHIHRLTYLSS | 3.91
VFIFYYVVEEILELHIHRLYYLSS | 2.76
VFIFYYVVEEILELHIHRLQYLSS | 1.89
VFIFYYVVEEILELHIHRLKYLSS | 2.34
VFIFYYVVEEILELHIHRLDYLSS | 4.23
VFIFYYVVEEILELHIHRLFYLSS | 2.85
VFIFYYVVEEILELHIHRLIYLSS | 1.98
VFIFYYVVEEILELHIHRLHYLSS | 2.34
VFIFYYVVEEILEPHIHRLRYLSS | 3.5
VFIFYYVVEEILETHIHRLRYLSS | 4.48

Variant | protein stability index
VFIFYYVVEEILEYHIHRLRYLSS | 2.14
VFIFYYVVEEILECHIHRLRYLSS | 2.19
VFIFYYVVEEILEIHIHRLRYLSS | 2.22
VFIFYYVVEEILEDHIHRLRYLSS | 1.93
VFIFYYVVEEILEEHIHRLRYLSS | 2.14
VFIFYYVVEEILENHIHRLRYLSS | 3.64
VFIFYYVVEEILEWHIHRLRYLSS | 1.99
VFIFYYVVEEILEVHIHRLRYLSS | 3.38
VFIFYYVVEEILEHHIHRLRYLSS | 2.69
VFIFYYVVEEILERHIHRLRYLSS | 2.59
VFIFYYVVEEILESHIHRLRYLSS | 2.8
VFIFYYVVEEILEMHIHRLRYLSS | 2.66
VFIFYYVVEEILEKHIHRLRYLSS | 2.29
VFIFYYVVEEILELHIHRWRYLSS | 3.75
VFIFYYVVEEILELHIHRMRYLSS | 2.53
VFIFYYVVEEILELHIHRDRYLSS | 2.8
VFIFYYVVEEILELHIHRCRYLSS | 2.7
VFIFYYVVEEILELHIHRNRYLSS | 2.31
VFIFYYVVEEILELHIHRTRYLSS | 4.02

Variants of: B2
Experiment: as above
Details: c terminus: a fixed tail appended

Variant | protein stability index
AVDVVFANRPDPNTPMEETVRAMT | 4.19
CVDVVFANRPDPNTPMEETVRAMT | 2.52
GVDVVFANRPDPNTPMEETVRAMT | 4.12
VVDVVFANRPDPNTPMEETVRAMT | 3.15
TVDVVFANRPDPNTPMEETVRAMT | 4.31
NVDVVFANRPDPNTPMEETVRAMT | 4.65
RVDVVFANRPDPNTPMEETVRAMT | 3.55
KVDVVFANRPDPNTPMEETVRAMT | 3.77
EVDVVFANRPDPNTPMEETVRAMT | 4.6
HVDVVFANRPDPNTPMEETVRAMT | 4.05
WVDVVFANRPDPNTPMEETVRAMT | 1.74
QVDVVFANRPDPNTPMEETVRAMT | 4.06
LVDVVFANRPDPNTPMEETVRAMT | 3.4
MVDVVFANRPDPNTPMEETVRAMT | 3.69
PVDVVFANRPDPNTPMEETVRAMT | 4.42
IVDVVFANRPDPNTPMEETVRAMT | 2.7
SVDVVFANRPDPNTPMEETVRAMT | 4.28
DVDVVFANRPDPNTPMEETVRAMT | 4.52
FVDVVFANRPDPNTPMEETVRAMT | 1.94

Variant | protein stability index
YVLVVFANRPDPNTPMEETVRAMT | 2.51
YVTVVFANRPDPNTPMEETVRAMT | 1.82
YVKVVFANRPDPNTPMEETVRAMT | 2.13
YVHVVFANRPDPNTPMEETVRAMT | 2.07
YVMVVFANRPDPNTPMEETVRAMT | 3.61
YVNVVFANRPDPNTPMEETVRAMT | 2.01
YVQVVFANRPDPNTPMEETVRAMT | 1.91
YVEVVFANRPDPNTPMEETVRAMT | 1.87
YVRVVFANRPDPNTPMEETVRAMT | 2.28
YVVVVFANRPDPNTPMEETVRAMT | 2.48
YVAVVFANRPDPNTPMEETVRAMT | 2
YVCVVFANRPDPNTPMEETVRAMT | 2.31
YVSVVFANRPDPNTPMEETVRAMT | 2.99
YVFVVFANRPDPNTPMEETVRAMT | 2.71
YVWVVFANRPDPNTPMEETVRAMT | 2.8
YVIVVFANRPDPNTPMEETVRAMT | 4.3
YVGVVFANRPDPNTPMEETVRAMT | 2.85
YVPVVFANRPDPNTPMEETVRAMT | 1.2
YHDVVFANRPDPNTPMEETVRAMT | 2.39

Variant | protein stability index
YCDVVFANRPDPNTPMEETVRAMT | 2.34
YMDVVFANRPDPNTPMEETVRAMT | 3.61
YADVVFANRPDPNTPMEETVRAMT | 2.96
YKDVVFANRPDPNTPMEETVRAMT | 4.33
YEDVVFANRPDPNTPMEETVRAMT | 4.98
YTDVVFANRPDPNTPMEETVRAMT | 2.91
YLDVVFANRPDPNTPMEETVRAMT | 3.09
YIDVVFANRPDPNTPMEETVRAMT | 2.07
YYDVVFANRPDPNTPMEETVRAMT | 3.07
YDDVVFANRPDPNTPMEETVRAMT | 4.91
YFDVVFANRPDPNTPMEETVRAMT | 2.81
YRDVVFANRPDPNTPMEETVRAMT | 4.13
YNDVVFANRPDPNTPMEETVRAMT | 4.51
YSDVVFANRPDPNTPMEETVRAMT | 4.24
YQDVVFANRPDPNTPMEETVRAMT | 3.32
YPDVVFANRPDPNTPMEETVRAMT | 3.69
YGDVVFANRPDPNTPMEETVRAMT | 3.76
YWDVVFANRPDPNTPMEETVRAMT | 2.5
